{"source": "patent US20260176653A1", "about": "(TRUSTEES OF BOSTON UNIVERSITY, published 2026)", "binders": {"B1": {"name": "Bad(L) peptide (Bad point mutant F121L, inserted at the 5' RNA binding loop of ADAR2-DD) (peptide)", "peptide": "ASGSGTGAPPNLWAAQRYGRELRRMSDELV", "modifications": "not fully specified (N-terminus, C-terminus); also: part of an expressed fusion protein"}, "B2": {"name": "Bad(F) peptide (BH3 peptide Bad with its linker, as inserted at the 5' RNA binding loop of ADAR2-DD) (peptide)", "peptide": "ASGSGTGAPPNLWAAQRYGRELRRMSDEFV", "modifications": "not fully specified (N-terminus, C-terminus); also: part of an expressed fusion protein"}, "B3": {"name": "ALFA-Bcl dual input iADAR (BAD peptide at the N-terminus of ADAR2-DD(F697Y), ALFA-PE at the 5' RNA binding site, AlfaNb and Bcl-xL in tandem at the C-terminus) (other)", "chain": "MASNFTQFVLVDNGGTGDVTVAPSNFANGIAEWISSNSRSQAYKVTCSVRQSSAQNRKYTIKVEVPKGAWRSYLNMELTIPIFATNSDCELIVKAMQGLLKDGNPIPSAIAANSGIYGGSGSGAGSGSPAGGGAPGSGGGSTGAPPNLWAAQRYGRELRRMSDEFVDSFKKASQLHLPQVLADAVSRLVLGKFGDLTDNFSSPHARRKVLAGVVMTTGTDVKDAKVISVSTGTKCINGEYMSDRGLALNDCHAEIISRRSLLRFLYTQLELYLNNKDDQKRSIFQKSERGGFRLKENVQFHLYISTSPCGDARIFSPHEPILEEPAASGSGPGRLEEELRRRLSPGTGDRHPNRKARGQLRTKIESGQGTIPVRSNASIQTWDGVLQGERLLTMSCSDKIARWNVVGIQGSLLSIFVEPIYFSSIILGSLYHGDHLSRAMYQRISNIEDLPPLYTLNKPLLSGISNAEARQPGKAPNFSVNWTVGDSAIEVINATTGKDELGRASRLCKHALYCRWMRVHGKVPSHLLRSKITKPNVYHESKLAAKEYQAAKARLFTAFIKAGLGAWVEKPTEQDQYSLTGSGGTAEVQLQESGGGLVQPGGSLRLSCTASGVTISALNAMAMGWYRQAPGERRVMVAAVSERGNAMYRESVQGRFTVTRDFTNKMVSLQMDNLKPEDTAVYYCHVLEDRVDSFHDYWGQGTQVTVSSGAGSGASSNRELVVDFLSYKLSQKGYSWSQFSDVEENRTEAPEGTESEMETPSAINGNPSWHLADSPAVNGATGHSSSLDAREVIPMAAVKQALREAGDEFELRYRRAFSDLTSQLHITPGTAYQSFEQVVNELFRDGVNWGRIVAFFSFGGALCVESVDKEMQVLVSRIAAWMATYLNDHLEPWIQENGGWDTFVELYGNNGSSELIKENMHMKLYMEGTVDNHHFKCTSEGEGKPYEGTQTMRIKVVEGGPLPFAFDILATSFLYGSKTFINHTQGIPDFFKQSFPEGFTWERVTTYEDGGVLTATQDTSLQDGCLIYNVKIRGVNFTSNGPVMQKKTLGWEAFTETLYPADGGLEGRNDMALKLVGGSHLIANIKTTYRSKKPAKNLKMPGVYYVDYRLERIKEANNETYVEQHEVAVARYCDLPSKLGHKLN"}}, "experiment_in_all_cases": "cell-based or functional assay", "key": {"[1]": {"biological_target": "Bcl-xL (human, fused to the C-terminus of ADAR2-DD) (human, UniProt Q07817 4-198)"}, "[2]": {"biological_target": "T1, HCV protease NS3 from genotype 1B (NS4A/NS3, fused to the C-terminus of ADAR2-DD) (Hepatitis C virus genotype 1B, UniProt Q9WMX2 1029-1206)", "T1 chain": "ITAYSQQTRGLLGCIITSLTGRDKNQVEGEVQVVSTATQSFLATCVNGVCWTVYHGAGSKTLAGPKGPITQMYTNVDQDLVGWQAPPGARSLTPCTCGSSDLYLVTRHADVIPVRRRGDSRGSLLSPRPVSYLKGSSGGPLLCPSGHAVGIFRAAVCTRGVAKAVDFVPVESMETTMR"}, "[3]": {"biological_target": "EGFP(R96M)-AlfaTag fusion protein (non-fluorescent EGFP carrying the ALFA tag)"}}, "note": "Ends that are not written are not given here."}
{"binder": "B1", "values": [{"measurement": "Fold Change (1 µM over 0 µM A-1331852)", "setting": "[1]", "result": 23.2, "unit": "fold"}, {"measurement": "median ratio of mNeonGreen to mCherry, flow cytometry, 0 µM A-1331852 (background)", "setting": "[1]", "result": 0.0389}, {"measurement": "median ratio of mNeonGreen to mCherry, flow cytometry, 1 µM A-1331852", "setting": "[1]", "result": 0.903}]}
{"binder": "B2", "values": [{"measurement": "Fold Change (1 µM over 0 µM A-1331852)", "setting": "[1]", "result": 37, "unit": "fold"}, {"measurement": "median ratio of mNeonGreen to mCherry, flow cytometry, 0 µM A-1331852 (background)", "setting": "[1]", "result": 0.026}, {"measurement": "median ratio of mNeonGreen to mCherry, flow cytometry, 1 µM A-1331852", "setting": "[1]", "result": 0.962}]}
{"binder": "ASGSGTGAPPNLWAAQRYGRELRRMSDEVV (not fully specified)", "note": "[BAD(V) peptide (Bad point mutant F121V, inserted at the 5' RNA binding loop of ADAR2-DD)]", "values": [{"measurement": "Fold Change (1 µM over 0 µM A-1331852)", "setting": "[1]", "result": 14.4, "unit": "fold"}, {"measurement": "median ratio of mNeonGreen to mCherry, flow cytometry, 0 µM A-1331852 (background)", "setting": "[1]", "result": 0.0708}, {"measurement": "median ratio of mNeonGreen to mCherry, flow cytometry, 1 µM A-1331852", "setting": "[1]", "result": 1.02}]}
{"binder": "GELDELVYLLDGPGYDPIHCDVVTRGGSHLFNF", "note": "[CP5-46-4D5E peptide (NS3 binding peptide, inserted at the 5' RNA binding loop of ADAR2-DD)]", "values": [{"measurement": "ratio of mNeonGreen to mCherry, 2 µM grazoprevir against no drug, HEK cells, imaging (fusion SEQ ID NO 169)", "setting": "[2]", "result": "~18", "unit": "fold"}]}
{"binder": "ASGSGTGAPPNLWAAQRYGRELRRMSDEGV (not fully specified)", "values": [{"measurement": "Fold Change (1 µM over 0 µM A-1331852)", "setting": "[1]", "result": 9.65, "unit": "fold"}, {"measurement": "median ratio of mNeonGreen to mCherry, flow cytometry, 0 µM A-1331852 (background)", "setting": "[1]", "result": 0.1}, {"measurement": "median ratio of mNeonGreen to mCherry, flow cytometry, 1 µM A-1331852", "setting": "[1]", "result": 0.968}]}
{"binder": "B3", "values": [{"measurement": "median relative fluorescence, flow cytometry: A-1331852 plus EGFP(R96M)-AlfaTag against A-1331852 alone (the effect of adding the antigen)", "setting": "[3]", "result": "~10", "unit": "fold"}]}
